Reference: publication PMC8632718, “Novel Assay Platform to Evaluate Intracellular Killing of Mycobacterium tuberculosis: In Vitro and In Vivo Validation” (Frontiers in Immunology, 2021)
Numbered stars: 1 amine (or outer) side, 2 acyl side, 3 side chain; on linkers, the order of the positions; unused ones are H or OH. Square brackets hold non-standard residues; d marks the D form. Peptide text beside a SMILES is read from it. * marks the point of attachment. Hydrazinoacetyl = O=C(CNN[*:1])[*:2]; Isonicotinoyl = O=C(c1ccncc1)*

Key:
EBC-1 cells = type: cell-based, human; conditions: 10 µM, 3 hrs, fixed, 30 profiles
Procedure: In addition to the internalization experiments, the surface morphology of INH-peptide-treated and fixed EBC-1 cells was also studied with atomic force microscopy (AFM) ( Supplementary Information 1.3 ). High-resolution imaging of the cell surfaces was performed with a Flex-Axiom AFM system (Nanosurf, Liestal, Switzerland).The representative images and surface roughness of the native and treated cells are shown in Supplementary Figure S2 .
1.3 Membrane integrity evaluation by atomic force microscopy (AFM) […]
High resolution imaging of the surfaces were performed with a Flex-Axiom AFM system (Nanosurf, Liestal, Switzerland) operating in dynamic mode utilizing soft-tapping cantilevers (Tap150-G, BudgetSensors) with nominal force constant of 5 N/m. The recorded images were evaluated with the Gwyddion software. […]
Two cut-off frequencies were chosen with real-space wavelengths of 1 μm and 200 nm. […] Figure 2D,E,F. Scale dependent surface roughness of the cells was determined according to Antonio et al. Mean Rq values are somewhat higher in the peptide and conjugate treated cells, but […]
Supplementary Figure 2. […] The apex area of the cells was selected for imaging with a scan area of 5 μm × 5 μm (512 × 512 pixel resolution), where the cellular curvature has the smallest distortion effect on the recorded height profiles. […]
1.4. […] To quantify […]

[1] = type: in vitro ADME; conditions: rat liver lysosomal homogenate, 37 °C, LC-MS
Procedure: Next, we examined the enzymatic stability of two peptide conjugates in rat liver lysosomal homogenate (see Supplementary Information 2 for the method description). Peptides were dissolved at 0.025 µg/µl concentration then allowed to react with the lysosomal homogenate. Degradation of the conjugates was fast. […]
1.2 Lysosomal degradation studies
Enzymatic stability of INH-Dhvar4 and INH-Penetratin conjugates were assayed in rat liver lysosomal homogenate (protein content was 16.6 µg/µl). Peptides were dissolved in 0.2 M Sodium acetate buffer (pH=5.03) at 0.025 µg/µl concentration and added to the lysosomal homogenate to reach 1 : 1 protein / peptide ratio (37 °C, 600 rpm vortex) . At different time points (5 min, 30 min, 1 h, 6 h, 24 h) the reaction was stopped by the addition of 5 µl formic acid. Sampled were then measured by LC-MS using a Thermo Scientific Q Exactive Focus Hybrid Quadrupole -Orbitrap Mass Spectrometer (Suppl. Figu re 1). For chromatography, a Wa ters Acquity UPLC BEH C18 (1.7 µ, 150 × 2.1 mm) column was used with a flow rate of 300 µL/min applying a gradient elution from 2% to […]
(1 picture or pasted object on this page, not shown here)

MonoMac-6 cells = conditions: 50 µM

For `CC(C)C[C@H](NC(=O)[C@H](CCCNC(=N)N)NC(=O)[C@H](CCCCN)NC(=O)CNNC(=O)c1ccncc1)C(=O)N[C@@H](Cc1ccccc1)C(=O)N[C@@H](CCCCN)C(=O)N[C@@H](CCCCN)C(=O)N[C@@H](CC(C)C)C(=O)N[C@@H](CC(C)C)C(=O)N[C@@H](Cc1ccccc1)C(=O)N[C@@H](CO)C(=O)N[C@@H](CC(C)C)C(=O)N[C@@H](CCCNC(=N)N)C(=O)N[C@@H](CCCCN)C(=O)N[C@@H](Cc1ccc(O)cc1)C(N)=O` [INH-Dhvar4] (Isonicotinoyl-[Hydrazinoacetyl]KRLFKKLLFSLRKY-NH2), the “membrane integrity (AFM surface roughness Rq)” value (EBC-1 cells) was “membrane integrity maintained”, the “peaks of the intact conjugates after 30 min of incubation” value ([1]; 0.2 M sodium acetate buffer pH 5.03, 0.025 µg/µl, 1:1 protein/peptide ratio) was “almost disappeared” and the “most stable fragment (main peak after 24 h of incubation)” value ([1]; pH 5.03, 0.025 µg/µl) was “tripeptide (KRL) covalently attached to INH”. For the same molecule, the “viability of MonoMac-6 cells” value (MonoMac-6 cells) was > 80%.
